Test results as given in PMC5714199.

Assays:
Assay in all cases: SPR
TopA CTD = TopA CTD (Streptomyces coelicolor, UniProt Q9X909 610-952)
TopA wild type = TopA wild type (Streptomyces coelicolor, UniProt Q9X909 1-952)
CTDΔED = CTDΔED (Streptomyces coelicolor, UniProt Q9X909 610-950, del951-952)
TopA881 = TopA881 (Streptomyces coelicolor, UniProt Q9X909 1-881, del882-952)

Measured: binding result

B1: sstopA-biot 120 nt ssDNA (63% GC) (ssDNA)
DNA: not shown
binds: all assays above
